From the supplement of paper PMC11908140

B1: library; numbered along this chain (parent)
chain: MRKPRAAVGSGHRKQAASQEGRQKHAKNNSQAKPSACDGLARQPEEVVLQASVSSYHLFRDVAEVTAFRGSLLSWYDQEKRDLPWRRRAEDEMDLDRRAYAVWVSEVMLQQTQVATVINYYTGWMQKWPTLQDLASASLEEVNQLWAGLGYYSRGRRLQEGARKVVEELGGHMPRTAETLQQLLPGVGRYTAGAIASIAFGQATGVVDGNVARVLCRVRAIGADPSSTLVSQQLWGLAQQLVDPARPGDFNQAAMELGATVCTPQRPLCSQCPVESLCRARQRVEQEQLLASGSLSGSPDVEECAPNTGQCHLCLPPSEPWDQTLGVVNFPRKASRKPPREESSATCVLEQPGALGAQILLVQRPNSGLLAGLWEFPSVTWEPSEQLQRKALLQELQRWAGPLPATHLRHLGEVVHTFSHIKLTYQVYGLALEGQTPVTTVPPGARWLTQEEFHTAAVSTAMKKVFRVYQGQQPGTCMGSKRSQVSSPCSRKKPRMGQQVLDNFFRSHISTDAHSLNSAAQ

Variants of: B1
Assay: 8OG:A repair function score (normalized; synonymous = 0, nonsense = -1) (normalized log-likelihood score); higher = more repair activity (WT-like)
Conditions: with 8OG:A DNA repair reporter (GFP) in HEK-293 MUTYH KO cells
Method in brief: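 After 72 h, viable mCherry+ cells were split into GFP+ (repair) and GFP− bins in three replicates per tile. These cells were MUTYH knockout HEK-293 cells holding lentiviral MUTYH cDNA NNN codon-scan libraries, kept in 10 pg/ml doxycycline and co-transfected with mCherry plus an 8OG:A GFP repair reporter. Sequencing of tile amplicons gave per-tile Rosace fitness scores, normalized into a repair function score anchored on synonymous and nonsense distributions. Synonymous medians were fixed at 0, nonsense at -1, and variants under 300 counts per million at the start were removed.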
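Note: cells sorted at 72 h after reporter transfection.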

Variant | 8OG:A repair function score
MRKPRAAVGSGHRKQAASQEGRQKHAKNNSQAKPSACDGLARQPEEVVLQASVSSYHLFRDVAEVTAFRGSLLSWYDQEKRDLPWRRRAEDEMDLDRRAYAVWVSEVMLQQTQVATVINYYTGWMQKWPTLQDLASASLEEVNQLWAGLGYYSRGRRLQEGARKVVEELGGHMPRTAETLQQLLPGVGRYTAGAIASIAFGQATGVVDGNVARVLCRVRAIGADPSSTLVSQQLWGLAQQLVDPARPGDFNQAAMELGATVCTFQRPLCSQCPVESLCRARQRVEQEQLLASGSLSGSPDVEECAPNTGQCHLCLPPSEPWDQTLGVVNFPRKASRKPPREESSATCVLEQPGALGAQILLVQRPNSGLLAGLWEFPSVTWEPSEQLQRKALLQELQRWAGPLPATHLRHLGEVVHTFSHIKLTYQVYGLALEGQTPVTTVPPGARWLTQEEFHTAAVSTAMKKVFRVYQGQQPGTCMGSKRSQVSSPCSRKKPRMGQQVLDNFFRSHISTDAHSLNSAAQ [P264F] | -0.223
MRKPRAAVGSGHRKQAASQEGRQKHAKNNSQAKPSACDGLARQPEEVVLQASVSSYHLFRDVAEVTAFRGSLLSWYDQEKRDLPWRRRAEDEMDLDRRAYAVWVSEVMLQQTQVATVINYYTGWMQKWPTLQDLASASLEEVNQLWAGLGYYSRGRRLQEGARKVVEELGGHMPRTAETLQQLLPGVGRYTAGAIASIAFGQATGVVDGNVARVLCRVRAIGADPSSTLVSQQLWGLAQQLVDPARPGDFNQAAMELGATVCTNQRPLCSQCPVESLCRARQRVEQEQLLASGSLSGSPDVEECAPNTGQCHLCLPPSEPWDQTLGVVNFPRKASRKPPREESSATCVLEQPGALGAQILLVQRPNSGLLAGLWEFPSVTWEPSEQLQRKALLQELQRWAGPLPATHLRHLGEVVHTFSHIKLTYQVYGLALEGQTPVTTVPPGARWLTQEEFHTAAVSTAMKKVFRVYQGQQPGTCMGSKRSQVSSPCSRKKPRMGQQVLDNFFRSHISTDAHSLNSAAQ [P264N] | -0.0423
MRKPRAAVGSGHRKQAASQEGRQKHAKNNSQAKPSACDGLARQPEEVVLQASVSSYHLFRDVAEVTAFRGSLLSWYDQEKRDLPWRRRAEDEMDLDRRAYAVWVSEVMLQQTQVATVINYYTGWMQKWPTLQDLASASLEEVNQLWAGLGYYSRGRRLQEGARKVVEELGGHMPRTAETLQQLLPGVGRYTAGAIASIAFGQATGVVDGNVARVLCRVRAIGADPSSTLVSQQLWGLAQQLVDPARPGDFNQAAMELGATVCTLQRPLCSQCPVESLCRARQRVEQEQLLASGSLSGSPDVEECAPNTGQCHLCLPPSEPWDQTLGVVNFPRKASRKPPREESSATCVLEQPGALGAQILLVQRPNSGLLAGLWEFPSVTWEPSEQLQRKALLQELQRWAGPLPATHLRHLGEVVHTFSHIKLTYQVYGLALEGQTPVTTVPPGARWLTQEEFHTAAVSTAMKKVFRVYQGQQPGTCMGSKRSQVSSPCSRKKPRMGQQVLDNFFRSHISTDAHSLNSAAQ [P264L] | -0.0962
MRKPRAAVGSGHRKQAASQEGRQKHAKNNSQAKPSACDGLARQPEEVVLQASVSSYHLFRDVAEVTAFRGSLLSWYDQEKRDLPWRRRAEDEMDLDRRAYAVWVSEVMLQQTQVATVINYYTGWMQKWPTLQDLASASLEEVNQLWAGLGYYSRGRRLQEGARKVVEELGGHMPRTAETLQQLLPGVGRYTAGAIASIAFGQATGVVDGNVARVLCRVRAIGADPSSTLVSQQLWGLAQQLVDPARPGDFNQAAMELGATVCTDQRPLCSQCPVESLCRARQRVEQEQLLASGSLSGSPDVEECAPNTGQCHLCLPPSEPWDQTLGVVNFPRKASRKPPREESSATCVLEQPGALGAQILLVQRPNSGLLAGLWEFPSVTWEPSEQLQRKALLQELQRWAGPLPATHLRHLGEVVHTFSHIKLTYQVYGLALEGQTPVTTVPPGARWLTQEEFHTAAVSTAMKKVFRVYQGQQPGTCMGSKRSQVSSPCSRKKPRMGQQVLDNFFRSHISTDAHSLNSAAQ [P264D] | -0.274
MRKPRAAVGSGHRKQAASQEGRQKHAKNNSQAKPSACDGLARQPEEVVLQASVSSYHLFRDVAEVTAFRGSLLSWYDQEKRDLPWRRRAEDEMDLDRRAYAVWVSEVMLQQTQVATVINYYTGWMQKWPTLQDLASASLEEVNQLWAGLGYYSRGRRLQEGARKVVEELGGHMPRTAETLQQLLPGVGRYTAGAIASIAFGQATGVVDGNVARVLCRVRAIGADPSSTLVSQQLWGLAQQLVDPARPGDFNQAAMELGATVCTIQRPLCSQCPVESLCRARQRVEQEQLLASGSLSGSPDVEECAPNTGQCHLCLPPSEPWDQTLGVVNFPRKASRKPPREESSATCVLEQPGALGAQILLVQRPNSGLLAGLWEFPSVTWEPSEQLQRKALLQELQRWAGPLPATHLRHLGEVVHTFSHIKLTYQVYGLALEGQTPVTTVPPGARWLTQEEFHTAAVSTAMKKVFRVYQGQQPGTCMGSKRSQVSSPCSRKKPRMGQQVLDNFFRSHISTDAHSLNSAAQ [P264I] | -0.1
MRKPRAAVGSGHRKQAASQEGRQKHAKNNSQAKPSACDGLARQPEEVVLQASVSSYHLFRDVAEVTAFRGSLLSWYDQEKRDLPWRRRAEDEMDLDRRAYAVWVSEVMLQQTQVATVINYYTGWMQKWPTLQDLASASLEEVNQLWAGLGYYSRGRRLQEGARKVVEELGGHMPRTAETLQQLLPGVGRYTAGAIASIAFGQATGVVDGNVARVLCRVRAIGADPSSTLVSQQLWGLAQQLVDPARPGDFNQAAMELGATVCTGQRPLCSQCPVESLCRARQRVEQEQLLASGSLSGSPDVEECAPNTGQCHLCLPPSEPWDQTLGVVNFPRKASRKPPREESSATCVLEQPGALGAQILLVQRPNSGLLAGLWEFPSVTWEPSEQLQRKALLQELQRWAGPLPATHLRHLGEVVHTFSHIKLTYQVYGLALEGQTPVTTVPPGARWLTQEEFHTAAVSTAMKKVFRVYQGQQPGTCMGSKRSQVSSPCSRKKPRMGQQVLDNFFRSHISTDAHSLNSAAQ [P264G] | -0.159
